Test results taken from patent US20210100916A1, “PREPARATION AND USE OF MITOCHONDRION-TARGETING SELF-ASSEMBLED PROTEIN NANOPARTICLE” (PEKING UNIVERSITY, priority 2018, published 2021).

Key:
[1] = test system: U87MG cells; test: ROS content in cells (DCFH-DA probe, confocal imaging); type: cell-based; conditions: 6 μmo/L, 24 hours, 10 μmol/L DCFH-DA, FIGS. 6 and 7
Method: Taking U87MG cell line as an example, 5×10^4 U87MG cells were added to a confocal dish and incubated overnight at 37° C. and 5% CO2; GSTP1-MT3(Fe^2+) and GSTP1-MT3(Co^2+) prepared in Example 3 were added to it (the final concentration was 6 μmo/L) and incubated again for 24 hours, and then washed with PBS for three times; then, 10 μmol/L DCFH-DA (ROS probe) was added, incubated at 37° C. for 30 minutes, and washed with PBS for three times; finally, confocal imaging was performed, and statistics was performed on the ROS content.

[2] = Body weight / toxicity during breast cancer treatment; type: in vivo, Balb/c mice; conditions: 100 μL of 30 pmol/L tail vein, 5 injections, vs PBS
Method: Taking the breast cancer of Balb/c mice as an example, 3×10^6 4T1 (stable transfected Luciferase) breast cancer cells were inoculated into Balb/c mice; when the tumor grew to 50-70 mm^3, 100 μL of 30 pmol/L GSTP1-MT3(Co^2+) was injected through the tail vein as the experimental group, and 100μL of PBS was injected through the tail vein as the control group. The injection was performed once every two days, that is, the tail vein injection was performed on the 3rd, 5th, 7th, 9th and 11th day of the experiment, respectively. A total of 5 injections were given. The weights of the mice and the size of the tumor were recorded at different time points.

## GSTP1-MT3(Co^2+): Self-assembled protein nanoparticle of MT3-GGGGS-GSTP1 fusion protein (SEQ ID NO: 4) induced by Co^2+
[1]
  ROS content in cells: significantly increase
[2]
  body weights, experimental group vs control group: not much different
  toxic or side effects on mice: no obvious toxic or side effects
